# Results: the supplement of paper PMC9112550, “Optimization of the antimicrobial peptide Bac7 by deep mutational scanning” (BMC Biology, 2022)
# System: Escherichia coli TOP10
# Assay: shrunken log2 fold change of peptide-encoding DNA abundance (4.5 h post-induction vs induction); higher = less antimicrobial activity (less host growth inhibition)
# Conditions: time post-induction: 4.5 h; library: site-saturation at positions 5, 18, 19, 20
# 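Also: peptides expressed intracellularly from a pBAD plasmid library in pooled LB shake-flask culture, induced with 0.3% L-arabinose, DNA abundance read by NGS, three biological replicates, DESeq2 with apeglm shrinkage.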
row,Sequence,shrunken log2 fold change
1,RRIRRRPPRLPRPRPRPLEVPRP,0.197
2,RRIRVRPPRLPRPRPRPKAIPRP,-0.0609
3,RRIRDRPPRLPRPRPRPTSKPRP,0.168
4,RRIRTRPPRLPRPRPRPNIFPRP,-0.174
5,RRIRCRPPRLPRPRPRPMMAPRP,0.184
6,RRIRNRPPRLPRPRPRPHLDPRP,0.118
7,RRIRERPPRLPRPRPRPMTVPRP,-0.124
8,RRIRHRPPRLPRPRPRPQIDPRP,-0.123
9,RRIRRRPPRLPRPRPRPYVVPRP,-0.121
10,RRIRFRPPRLPRPRPRPNAHPRP,0.0459
11,RRIRYRPPRLPRPRPRPRVGPRP,0.161
12,RRIRERPPRLPRPRPRPYLVPRP,-0.529
13,RRIRMRPPRLPRPRPRPASFPRP,0.126
14,RRIRQRPPRLPRPRPRPRMQPRP,-0.0113
15,RRIRGRPPRLPRPRPRPKRIPRP,0.147
16,RRIRERPPRLPRPRPRPCKIPRP,-0.00331
17,RRIRGRPPRLPRPRPRPICRPRP,-0.0289
18,RRIRCRPPRLPRPRPRPTALPRP,0.216
19,RRIRLRPPRLPRPRPRPGGHPRP,0.0643
20,RRIRMRPPRLPRPRPRPNNLPRP,-0.259
21,RRIRNRPPRLPRPRPRPFAQPRP,-0.321
22,RRIRMRPPRLPRPRPRPWNFPRP,-0.0756
23,RRIRYRPPRLPRPRPRPDSFPRP,0.0025
24,RRIRIRPPRLPRPRPRPHNVPRP,-0.414
25,RRIRSRPPRLPRPRPRPFSAPRP,-0.259

row,Sequence,shrunken log2 fold change
1,RRIRNRPPRLPRPRPRPAMWPRP,-0.0838
2,RRIRFRPPRLPRPRPRPIGRPRP,0.00988
3,RRIRHRPPRLPRPRPRPWDCPRP,-0.00608
4,RRIRRRPPRLPRPRPRPYPAPRP,0.0876
5,RRIRRRPPRLPRPRPRPQDMPRP,0.0973
6,RRIRERPPRLPRPRPRPDSTPRP,-0.0931
7,RRIRRRPPRLPRPRPRPMMCPRP,0.102
8,RRIRWRPPRLPRPRPRPEKWPRP,0.0948
9,RRIRPRPPRLPRPRPRPEHNPRP,-0.169
10,RRIRARPPRLPRPRPRPPIKPRP,-0.0438
11,RRIRTRPPRLPRPRPRPMWAPRP,0.0473
12,RRIRDRPPRLPRPRPRPYEPPRP,-0.017
13,RRIRMRPPRLPRPRPRPLDAPRP,1.74
14,RRIRARPPRLPRPRPRPGYVPRP,-0.0339
15,RRIRTRPPRLPRPRPRPYRWPRP,-0.281
16,RRIRLRPPRLPRPRPRPLSKPRP,0.0272
17,RRIRRRPPRLPRPRPRPITGPRP,0.111
18,RRIRYRPPRLPRPRPRPIFKPRP,-0.133
19,RRIRMRPPRLPRPRPRPISPPRP,0.0263
20,RRIRMRPPRLPRPRPRPQFEPRP,0.046
21,RRIRRRPPRLPRPRPRPVERPRP,-0.049
22,RRIRHRPPRLPRPRPRPANAPRP,-0.0554
23,RRIRLRPPRLPRPRPRPMADPRP,0.0237
24,RRIRSRPPRLPRPRPRPAANPRP,0.403
25,RRIRCRPPRLPRPRPRPPWCPRP,-0.123

row,Sequence,shrunken log2 fold change
1,RRIRYRPPRLPRPRPRPAHGPRP,0.1
2,RRIRRRPPRLPRPRPRPSEVPRP,1.94
3,RRIRARPPRLPRPRPRPWLHPRP,0.144
4,RRIRRRPPRLPRPRPRPFSQPRP,-0.422
5,RRIRSRPPRLPRPRPRPIHYPRP,-0.386
6,RRIRDRPPRLPRPRPRPKAVPRP,-0.00884
7,RRIRARPPRLPRPRPRPQIMPRP,0.0849
8,RRIRMRPPRLPRPRPRPMMEPRP,0.00973
9,RRIRSRPPRLPRPRPRPAMLPRP,0.0679
10,RRIRRRPPRLPRPRPRPWVCPRP,0.0925
11,RRIRMRPPRLPRPRPRPQVKPRP,-0.0452
12,RRIRMRPPRLPRPRPRPRTWPRP,1.11
13,RRIRDRPPRLPRPRPRPDAKPRP,0.162
14,RRIRNRPPRLPRPRPRPQGAPRP,-0.149
15,RRIRARPPRLPRPRPRPEYVPRP,0.0744
16,RRIRIRPPRLPRPRPRPFWKPRP,0.0187
17,RRIRQRPPRLPRPRPRPSRIPRP,-0.305
18,RRIRIRPPRLPRPRPRPMTVPRP,0.0104
19,RRIRCRPPRLPRPRPRPREIPRP,0.218
20,RRIRKRPPRLPRPRPRPSMLPRP,-0.0569
21,RRIRQRPPRLPRPRPRPGVWPRP,0.611
22,RRIRLRPPRLPRPRPRPDSIPRP,-0.0883
23,RRIRPRPPRLPRPRPRPYSLPRP,-0.139
24,RRIRMRPPRLPRPRPRPFFMPRP,-0.121
25,RRIRPRPPRLPRPRPRPGKSPRP,-0.208

row,Sequence,shrunken log2 fold change
1,RRIRLRPPRLPRPRPRPDTPPRP,0.0881
2,RRIRFRPPRLPRPRPRPCWMPRP,-0.0459
3,RRIRSRPPRLPRPRPRPEIEPRP,0.0942
4,RRIRERPPRLPRPRPRPDRRPRP,0.0868
5,RRIRYRPPRLPRPRPRPQTEPRP,0.0019
6,RRIRVRPPRLPRPRPRPAMYPRP,3.58
7,RRIRHRPPRLPRPRPRPLWGPRP,-0.107
8,RRIRDRPPRLPRPRPRPPICPRP,-0.224
9,RRIRMRPPRLPRPRPRPGLPPRP,0.955
10,RRIRQRPPRLPRPRPRPCNVPRP,-0.0261
11,RRIRRRPPRLPRPRPRPNWMPRP,0.0739
12,RRIRLRPPRLPRPRPRPVSDPRP,0.128
13,RRIRYRPPRLPRPRPRPATSPRP,-0.452
14,RRIRYRPPRLPRPRPRPQEHPRP,-0.65
15,RRIRNRPPRLPRPRPRPFYWPRP,-0.0682
16,RRIRHRPPRLPRPRPRPTHVPRP,0.0105
17,RRIRPRPPRLPRPRPRPTGSPRP,0.146
18,RRIRHRPPRLPRPRPRPVYCPRP,-0.49
19,RRIRPRPPRLPRPRPRPACFPRP,0.45
20,RRIRRRPPRLPRPRPRPSKRPRP,-0.0523
21,RRIRYRPPRLPRPRPRPLEHPRP,-0.26
22,RRIRLRPPRLPRPRPRPDIHPRP,0.126
23,RRIRRRPPRLPRPRPRPSGEPRP,0.387
24,RRIRERPPRLPRPRPRPFLAPRP,0.0854
25,RRIRFRPPRLPRPRPRPSKCPRP,-0.26

row,Sequence,shrunken log2 fold change
1,RRIRSRPPRLPRPRPRPNGHPRP,-0.0925
2,RRIRCRPPRLPRPRPRPRHAPRP,0.451
3,RRIRWRPPRLPRPRPRPSNHPRP,-0.471
4,RRIRGRPPRLPRPRPRPELIPRP,0.408
5,RRIRCRPPRLPRPRPRPRFHPRP,-0.393
6,RRIRTRPPRLPRPRPRPYSAPRP,-0.206
7,RRIRDRPPRLPRPRPRPRNCPRP,-0.152
8,RRIRGRPPRLPRPRPRPYNQPRP,-0.104
9,RRIRKRPPRLPRPRPRPYVFPRP,-0.0884
10,RRIRWRPPRLPRPRPRPDCAPRP,0.97
11,RRIRMRPPRLPRPRPRPCKFPRP,0.12
12,RRIRIRPPRLPRPRPRPEFSPRP,0.00834
13,RRIRYRPPRLPRPRPRPEMIPRP,0.0135
14,RRIRNRPPRLPRPRPRPWPVPRP,-0.153
15,RRIRNRPPRLPRPRPRPGSSPRP,0.0992
16,RRIRWRPPRLPRPRPRPYDKPRP,-0.534
17,RRIRARPPRLPRPRPRPVLDPRP,0.185
18,RRIRKRPPRLPRPRPRPLGRPRP,1.35
19,RRIRNRPPRLPRPRPRPWNGPRP,-0.368
20,RRIRQRPPRLPRPRPRPMEQPRP,-0.074
21,RRIRKRPPRLPRPRPRPFPAPRP,0.341
22,RRIRSRPPRLPRPRPRPHQEPRP,-0.0261
23,RRIRVRPPRLPRPRPRPHEDPRP,0.0277
24,RRIRTRPPRLPRPRPRPPFDPRP,0.104
25,RRIRPRPPRLPRPRPRPRWRPRP,0.542

row,Sequence,shrunken log2 fold change
1,RRIRLRPPRLPRPRPRPTTCPRP,0.0385
2,RRIRQRPPRLPRPRPRPDDHPRP,-0.00211
3,RRIRERPPRLPRPRPRPSHSPRP,-1.37
4,RRIRIRPPRLPRPRPRPNYMPRP,-0.177
5,RRIRNRPPRLPRPRPRPKHSPRP,-0.187
6,RRIRWRPPRLPRPRPRPFETPRP,0.0441
7,RRIRGRPPRLPRPRPRPEPSPRP,1.47
8,RRIRQRPPRLPRPRPRPFCKPRP,-0.0799
9,RRIRGRPPRLPRPRPRPQITPRP,0.25
10,RRIRTRPPRLPRPRPRPSMWPRP,0.103
11,RRIRTRPPRLPRPRPRPETAPRP,0.4
12,RRIRKRPPRLPRPRPRPALQPRP,0.493
13,RRIRDRPPRLPRPRPRPDITPRP,0.282
14,RRIRLRPPRLPRPRPRPRYNPRP,-0.093
15,RRIRNRPPRLPRPRPRPKIFPRP,0.19
16,RRIRSRPPRLPRPRPRPCFVPRP,-0.378
17,RRIRFRPPRLPRPRPRPMRTPRP,0.547
18,RRIRWRPPRLPRPRPRPEFSPRP,0.109
19,RRIRERPPRLPRPRPRPEWGPRP,0.23
20,RRIRERPPRLPRPRPRPKLTPRP,0.21
21,RRIRTRPPRLPRPRPRPLDQPRP,0.365
22,RRIRQRPPRLPRPRPRPATGPRP,0.0181
23,RRIRMRPPRLPRPRPRPGMDPRP,0.32
24,RRIRKRPPRLPRPRPRPRDHPRP,0.494
25,RRIRPRPPRLPRPRPRPAQSPRP,0.448
